Drawing on a protein production outcome set (Wang et al. 2014), this text covers protein production for 14 sequences.

This data set is described as follows: label from the status in PepcDB records.
“MIITIANEKGGSGKSTLCLNLCVQLLLDKKDIAALDTDSQKSLEVFNNIRSETSLPNFTLFNRTGNITDTLKQMMDKYEYILIDTKGEHSKESQRAMLLSDWVLIPTTPSQLDTAVLLDMLERIRDIQALNENLKACIVMNRIPTIPTLKEKKALIDFINQNNANESVFLMDNLLSERIAYKRSVSEGMGVMEYNDNKAKNEWSQFYDELNGYLRIKK”: the protein production entry is reported as “failed”.
Regarding “MIIVGFIGLVLVIILSAVLSLLRARSEALRQQQQFLAQLCPQLERQKTDRSPLNIPVVPQECEPLYHALNEMLAALPAGMGKDKLTGLINRVGLKRTLASLMPITQGTLVLIDIYRFRYVNDLLGFVFGDILLKQFAERLTSLSLKPKLIARLNGDEFFLYYEQSLSQEQLLHLRGRLQVPFNIKDTPVSVRLQIGCLQLAQHHADVSNMLRRLDLALKKARSTRIAIACYSENDDIRQLRELKIIDSLPNGLQRNHLYMVYQPKQDVSSEGCTQVEALIRWEHEELGVISPGEFIPLAECAGMIDLVSHWALEQVLQQQVKWRLAGISVCVALNLSTRDLDSETLPHELDARLKHYQLPPECLMIEITESTLMADLNKAVDTLVQIRRLGIHLAIDDFGTGHSSLAYLKHLPANEVKIDKVFLQDLKPNQPSEYILEASVNIAKKLGYEVTVEGVETQEVRDLLVKMGVDRIQGLCYAKPMRAVELEMHWHRLCPAPKMLSANLGSHP”, the protein production entry was “failed”.
In the case of “MIKAVKKRKEGNMLKDLNTNQGLKPWRVESVFYCIVIVLIFIGAFKIAEAVFKPLAISIVLGFLVYPVYTFLARFKVPKFLIVFIIFFLLFSFSYLIFSFVYYSVTVLMKQLPYYQNQLAFIMKDVLSRYKVDSSVINDVNFSGYIYPFLTRAYNEIIGFTSSLVVVFLLLYFLLSEIHVFEMKLDKAFKKPISTRFIGALDTINNQIGKYLGIKILVSCLTGILVFIGLTLFGQDFPLVWAVLSFVFNFIPSIGSILAVFFIVITSLIQFYPNLNIVLYVFIYNTSIQMLIGNILEPKMQGKRLDISPFLLLCFLFFWGWLWGIVGLLISYPFTVIVKVIVDNVSWLKSFSVFLGGSEILSNISHISSKDKEI”, the protein production entry is recorded as “failed”.
Under “MIKDCANRYFLSFVVEVEPNTTIANNQSIGIDLGLKTFAVMSNGEKALSPDYSKHDRKIRKLQKKLARQQKDSKRRNNTRVKIAKLHNQIADTRKDFLHKLSTKIINDNQVIVLEDLNVSGMVKNSRLSRVISLQGWREFRNLCEAKSEKFSRDFRVIDRWQPTSQICSCCGFRWGKIDLSVRSILCLSCGTEQERDENASRNIEMVGMGHRHDLKRAGSDCQTTSVASYCELSRITEVESR” stands “failed”; under “MIKETVFKSFDTPSALEQQLASKIASQLQEAVDARGKASLVVSGGSTPLKLFQLLSMKSIDWSDVYITLADERWVEADADASNERLVREHLLQNRASNAKFRGLKNMFSTAEAGADMAAESLSNFPRPFDVVVLGMGNDGHTCSWFPCSAELENALTTQALCVATNPTTAPHGRITLSKSAILNSRQIYLHLVGEQKLSVYRQALESDDVHAMPIRAVLAQRKTPVDVFWSA”, “not failed”; under “MIKEWATVVSWQNGQAVVSCDVKASCSSCASRAGCGSRVLNKLGPQTTHTIVVPSAEPLAPGQKVELGIAEKSLLGSALLVYMSPLAGLFLCAALFQMLFGSDLAALSGAVLGGVGGFLVARGYSRKLAERDAWQPVILNVALPPDLVRVETTSIETRQ”, “failed”.
Regarding “MIKGTGHMIVNIANDRGMSIDSIRKTIKESVLIAYKKYFGSNENAFIKFDDDTGDLSVYAKKKIVKEVKDSLLEILEKDISKENIVEGDYAYIEINPKVFDRLSIQVAKQRTKNDLQGIEDNEILSEFKSKLNKVVIGYVQQNRNGDLYVNLGLEHHHHHH”, the protein production result was “not failed”.
Under “MIKHPLKILFMHGLDSSRESTKFHAIESTNKFCITIDYRNLSYNTVADFYQNTIETIQPDLLIGHNLGGYWALKLSSQYHLAAIVANPSLAPLFRDDYPSLTSKELDTDSPKIAYIELGDESLNMYDIQNVLEDYMIVDSIEGGHHRLENPSKLNILIDHIQSEYFSHTIR” stands “failed”.
Take “MIKIVTDNFLYEKEKVLALRYMYDSAKKPGITIITVTNKQKYIKNIMDNFRRCLYPKKEFIIILNDTKLQTSLYKNYFSKTKNLKLFKVDSSYSLGECLNLAISKSNYNYIAKMDDDDYYGSHYILDSMNAFNYTDASIIGKATHFIYFEDRTLLNLWCQGNENTYATSVAGATFVMKKSIFNKVKFNSLNNGEDIDLLSQCNNLGIKIYSCSKFNYVYNRHASPDNHSWKISNDLLVKRSIKLCITKSYKRIVHILEHHHHHH”: the protein production entry was “failed”.
To “MIKLIATDIDGTLVKDGSLLIDPEYMSVIDRLIDKGIIFVVCSGRQFSSEFKLFAPIKHKLLYITDGGTVVRTPKEILKTYPMDEDIWKGMCRMVRDELPACDYFAATPDFCFAEDGGSPIFHLLRDSYGFEMREVDDITRLDRNDIIKFTVFHPDKCEELCTPVFIPAWNKKAHLAAAGKEWVDCNAKGVSKWTALSYLIDRFDLLPDEVCCFGDNLNDIEMLQNAGISYAVSNARQEVIAAAKHTCAPYWENGVLSVLKSFL” belongs “not failed”; to “MIKSILDYLLTLHPVLLGLLGSTFTWFTTAFGAAAVFFFRKVDNKIMDAMLGFSAGIMIAASFFSLIQPAIERAEELGYITWVPAVFGFLVGAFFIYIVDVFVPDLDKLTFIDEDLTKHGKKDFLLFTAVTLHNFPEGLAVGVAFGALASNPDIQTLVGAMLLTLGIGIQNIPEGAAISLPLRRGNVALAKCFNYGQMSGLVEIVGGLMGAYAVYSFTRILPFALAFSAGAMIYVSIEQLIPEAKRKDIDNKVPSIFGVIGFTLMMFLDVSLG”, “failed”; to “MILELQNAILEMIAKGEPLAATIEQLCLKVEAAVPGIIASVLTFDGSRLHTLAGPSLPPDYSAAVDNLEAGPLAGSCGAAAYFGEAVVVTDIETDPRWQDFKSLVLPLGLKACWSSPIKRGERVIGSFAFYYRDHRGPKALERDLVEACVHLCTIAIDREERVMERQRLTYSDALTGLSNRARFNQLLAEDLPRSGRAWGILLVDIDNLKLVNDTFGHAAGDALIQVVADRVATTAGSQNTFRLGGDEFAVIVSDDKDLDLNARATDILKALSSPSTCDGHVVFPAATIGGALAETETNPDQTRQNADLALYHAKEHNRGRYVQHYPGLGTALTRRFRAVRDVGVALEDDRIDAHYQPILRLDTREIVGFEALCRMTTPSGEIIAAAHFHEATKDAHIAAELTQRMLLRVARDIRSWLARGLPLQHVGINLSAADFRGGNLQDRLCRIFGEAEVPLKHIILEVTESVYLGQRDYVVADEIKALRSKGLRVALDDFGTGYASLTHLLTVPVDIIKIDKSFIDRMVPGDAGTFIVEGLIGIADKLGIRVVAEGIETELQAVQLSQLGCKLGQGYLFSKAVDRTVAAAILEQHGQRLDQDKTRAGAL”, “failed”.
To “MILFSPVARDSAAGQAAALRAPVSLQDDTLKIFGFDDQSVGQPLSGGTDILACLTLFNEPAEAVAGTLAFLAANQDMLASRNGPIQRLEVAIVLDGRDRVHPETEALFNRLGFDLDWGCDPEAAGIGQHGADEAQVRVQTRLIPVDLLTGVSGNPLRVHLAVKDRNRGKLDSHAFFFRSLAERLQPDFVLQIDAGSRPVADCLPALLAQMEREPDCAALATNIVMEDAALTDWLQSWQQADFLWQKLSDWPIGNGLGYLEVVPGQASLLRMSALRRGANGDPLAAYLRGLSRPKSLMEANLFLAEDRIIGAEIVKSHPACTIRYHHDANLVTDGCATVGELLRQRRRWTNSTLVARLVAIGSLADLLWHGRLPPARWCSMALALAWTLLQLLEQWFIPASLALLVSLTSGFWQDEAKNGVAGQGLAWGMATGVLLFWLYCLASMKGREGERSLSRRLHGGLHGLGLGILLACTVLGFAICLVEVGPVIQGAILTVALILGMAVWHHSSRGMSDLLRVFVLYIPSAPVASFYLLSYALANFHDVSWGTKGLVGDIKAVIPAGWRRMRLRLLILWVVSNTALVWLVMGVVPGGAISVLHYACLPVVGQIAIASLLLLSASCRKPVSPSPEVTVRAGSGPHLHR” belongs “failed”; to “MILIRYLIKEVFKSQIAILLILLLIFFSQQFVRVLGAAANGNVPADLVFSLLGLGMPTMAQLMLPLCLFIAILLTFGRLYAESEITVMRACGVGQRILVKVALIMSLLTAGIAAYNALWLSPWAIQKQVNMVEDAKANPTVGVLSSGQFISTNNNNVVLFIDKIKDNQIRNVYLFQMTPQKQTKPSVITAEKGELIALPNGDQVLNLKNTKRVEGTSALPDFRITHFDEYHAYLGYQSAENTNDEVAELTLSQLIDLDSSSAKAELHWRITLILAVPLMALIAVPLSRVNPRQGRFAKILPALLLYLIYFLLQSSFKSAGSAGKLEAELLMPLVNIGFFLLAVVLNSWDSEIMYKFRYLFSKKGSAKDDKYP”, “failed”.
